Source: ChEMBL document CHEMBL3352420, “Discovery of 2-pyridylureas as glucokinase activators” (J Med Chem, 2014)

Assays:
[1] = compound: CCNC(=O)Nc1ncc(Sc2ccccn2)cc1Oc1cccnc1CC; assay: (§1) Activation of purified human glucokinase isoform 3 (13 to 466 aa) assessed as Vmax by spectrophotometry in presence of varying concentration of glucose relative to control
[2] = compound: CCOC(=O)Nc1ncc(Sc2ccccn2)cc1Oc1cccnc1CC; assay: as §1
[3] = compound: CCc1ncccc1Oc1cc(Sc2ccccn2)cnc1NC(=O)NC; assay: as §1
[4] = compound: CCc1ncccc1Oc1cc(Sc2ccccn2)cnc1NC(=O)NC(C)C; assay: as §1
[5] = compound: CCc1ncccc1Oc1cc(Sc2ccccn2)cnc1NC(=O)NCCO; assay: as §1
[6] = compound: CCc1ncccc1Oc1cc(Sc2ccccn2)cnc1NC(=O)NCc1ccc(O)cc1; assay: as §1
[7] = compound: CCc1ncccc1Oc1cc(Sc2ccccn2)cnc1NC(=O)NCc1cccc(O)c1; assay: as §1
[8] = compound: CCc1ncccc1Oc1cc(Sc2ccccn2)cnc1NC(=O)NCc1ccccc1O; assay: as §1
[9] = compound: CCc1ncccc1Oc1cc(Sc2ccccn2)cnc1NC(=O)NCc1ccccn1; assay: as §1
[10] = compound: CCc1ncccc1Oc1cc(Sc2ccccn2)cnc1NC(=O)NCc1cccnc1; assay: as §1
[11] = compound: CCc1ncccc1Oc1cc(Sc2ccccn2)cnc1NC(=O)NCc1ccncc1; assay: as §1
[12] = compound: CCc1ncccc1Oc1cc(Sc2ccccn2)cnc1NC(C)=O; assay: as §1
[13] = compound: CCc1ncccc1Oc1cc(Sc2ccccn2)cnc1NC(N)=O; assay: as §1
[14] = compound: CCc1ncccc1Oc1cc(Sc2ccccn2)cnc1NC=O; assay: as §1
[15] = compound: CCn1nccc1Oc1cc(Sc2ccccn2)cnc1NC(=O)NC; assay: as §1
[16] = compound: CNC(=O)Nc1ncc(SC2CCN(C(=O)OC(C)(C)C)CC2)cc1Oc1cccnc1C; assay: as §1
[17] = compound: CNC(=O)Nc1ncc(SC2CCN(C(C)=O)CC2)cc1Oc1cccnc1C; assay: as §1
[18] = compound: CNC(=O)Nc1ncc(SC2CCN(S(C)(=O)=O)CC2)cc1Oc1cccnc1C; assay: as §1
[19] = compound: CNC(=O)Nc1ncc(SC2CCOCC2)cc1Oc1cccnc1C; assay: as §1
[20] = compound: CNC(=O)Nc1ncc(SCC2CCOCC2)cc1Oc1cccnc1C; assay: as §1
[21] = compound: CNC(=O)Nc1ncc(SCCCO)cc1Oc1cccnc1C; assay: as §1
[22] = compound: CNC(=O)Nc1ncc(SCCCOC)cc1Oc1cccnc1C; assay: as §1
[23] = compound: CNC(=O)Nc1ncc(SCc2ccccc2)cc1Oc1cccnc1C; assay: as §1
[24] = compound: CNC(=O)Nc1ncc(SCc2ccccn2)cc1Oc1cccnc1C; assay: as §1
[25] = compound: CNC(=O)Nc1ncc(Sc2ccccn2)cc1Oc1c(C)n[nH]c1C; assay: as §1
[26] = compound: CNC(=O)Nc1ncc(Sc2ccccn2)cc1Oc1cccnc1C; assay: as §1

B1: Hexokinase-4 (Homo sapiens), P35557 (protein)
chain: MLDDRARMEAAKKEKVEQILAEFQLQEEDLKKVMRRMQKEMDRGLRLETHEEASVKMLPTYVRSTPEGSEVGDFLSLDLGGTNFRVMLVKVGEGEEGQWSVKTKHQMYSIPEDAMTGTAEMLFDYISECISDFLDKHQMKHKKLPLGFTFSFPVRHEDIDKGILLNWTKGFKASGAEGNNVVGLLRDAIKRRGDFEMDVVAMVNDTVATMISCYYEDHQCEVGMIVGTGCNACYMEEMQNVELVEGDEGRMCVNTEWGAFGDSGELDEFLLEYDRLVDESSANPGQQLYEKLIGGKYMGELVRLVLLRLVDENLLFHGEASEQLRTRGAFETRFVSQVESDTGDRKQIYNILSTLGLRPSTTDCDIVRRACESVSTRAAHMCSAGLAGVINRMRESRSEDVMRITVGVDGSVYKLHPSFKERFHASVRRLTPSCEITFIESEEGSGRGAALVSAVACKKACMLGQ
Vmax [1]: 64% | Vmax [2]: Not active | Vmax [3]: 77% | Vmax [4]: Not active | Vmax [5]: 66% | Vmax [6]: 66% | Vmax [7]: 68% | Vmax [8]: 84% | Vmax [9]: 72% | Vmax [10]: 75% | Vmax [11]: 73% | Vmax [12]: Not active | Vmax [13]: 77% | Vmax [14]: 104% | Vmax [15]: 90% | Vmax [16]: 75% | Vmax [17]: 59% | Vmax [18]: 54% | Vmax [19]: 73% | Vmax [20]: 88% | Vmax [21]: 80% | Vmax [22]: 87% | Vmax [23]: 76% | Vmax [24]: 146% | Vmax [25]: 53% | Vmax [26]: 74%
